Experimental data published in patent publication US20140186357A1.

Molecular target: SUMO1 (construct transfected into HSW cells in Example 8) (human) (UniProt P63165)
Test: cell-based or functional assay

Sequence of UniProt P63165 (P63165 2-97 limits assumed): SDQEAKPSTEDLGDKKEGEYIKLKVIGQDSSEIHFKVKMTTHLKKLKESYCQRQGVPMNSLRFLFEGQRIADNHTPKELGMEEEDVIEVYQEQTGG

Question: For “N-terminal deleted BACE1-CTF (BACE1 C-terminal fragment, residues 456-501) (peptide)”, which Aβ production (secreted Aβ levels by ELISA, HSW cells) is on record?
Answer: Its Aβ production (secreted Aβ levels by ELISA, HSW cells) is 25 % reduction.
